The chains are these.
B1: Ubiquitin-protein ligase residues 30 to 86; numbered along this chain, Q05086 (parent)
chain: KHLIERYYHQLTEGCGNEACTNEFCASCPTFLRMDNNAAAIKALELYKINAKLCDPH

± gives the uncertainty stated by the source.

Variants of B1 are the subject of this data set. Description: abundance fitness (aPCA) (normalised: wild type 0, dead -1); higher = more abundant; growth selection in yeast, the domain comes from the species named. The note with it: Homo sapiens.
Turning to KHLIERYYAQLTEGCGNEACTNEFCASCPTFLRMDNNAAAIKALELYKINAKLCDPH [H9A], the abundance fitness amounted to 0.007 ± 0.062.
Take KHLIERYYMQLTEGCGNEACTNEFCASCPTFLRMDNNAAAIKALELYKINAKLCDPH [H9M]: the abundance fitness is -0.013 ± 0.07.
The value for KHLIERYYHQLTEGCGNEFCTNEFCASCPTFLRMDNNAAAIKALELYKINAKLCDPH [A19F] was -0.031 ± 0.093; that for KHLIERYYHQLTEGCGNEKCTNEFCASCPTFLRMDNNAAAIKALELYKINAKLCDPH [A19K] was -0.001 ± 0.078; that for KHLIERYYHQLTEGCGNRACTNEFCASCPTFLRMDNNAAAIKALELYKINAKLCDPH [E18R] was -0.066 ± 0.056.
SHLIERYYHQLTEGCGNEACTNEFCASCPTFLRMDNNAAAIKALELYKINAKLCDPH [K1S]: the abundance fitness was -0.833 ± 0.28.
Consider NHLIERYYHQLTEGCGNEACTNEFCASCPTFLRMDNNAAAIKALELYKINAKLCDPH [K1N], for which the abundance fitness was -0.397 ± 0.23.
Take KHLIERYYHQLTEGCGNEACTNEFCASCPTFLRMDSNAAAIKALELYKINAKLCDPH [N36S]: the abundance fitness was 0.044 ± 0.075.
On to KHLIERYYHQLTEGCGNEACTNEFCASCPTFLRMDVNAAAIKALELYKINAKLCDPH [N36V], for which the abundance fitness is -0.03 ± 0.076.
KHLIERYYHQLTEGCGNEACTNEFCASCPTFLRMDKNAAAIKALELYKINAKLCDPH [N36K]: the abundance fitness came to 0.013 ± 0.13.
In the case of KHLIERYYHQLTEGCGNEACTNEFCASCPTFLRMDANAAAIKALELYKINAKLCDPH [N36A] it was -0.042 ± 0.093; in that of KHLIERYYHQLTEGCGNEACTNEFCASCPTFLRFDNNAAAIKALELYKINAKLCDPH [M34F], -0.061 ± 0.14; in that of KHLIERYYHQLTEGCGNEACHNEFCASCPTFLRMDNNAAAIKALELYKINAKLCDPH [T21H], 0.018 ± 0.093.
Turning to KHLIERYYHQLTEGCGNEACFNEFCASCPTFLRMDNNAAAIKALELYKINAKLCDPH [T21F], the abundance fitness is -0.008 ± 0.12.
With KHLIERYYHQLTEGCGNEACTVEFCASCPTFLRMDNNAAAIKALELYKINAKLCDPH [N22V], the abundance fitness is -0.301 ± 0.061.
The value for KHLIERYYHQLTEGCGNEACTHEFCASCPTFLRMDNNAAAIKALELYKINAKLCDPH [N22H] was -0.345 ± 0.12.
For the variant KHLIERYYHQLTEGCGNEACTNEFCASCPTFLRMYNNAAAIKALELYKINAKLCDPH [D35Y], the abundance fitness is -0.333 ± 0.12.
In the case of KHLIERYYHQLTEGCGNEACTNEFCASCPTFLRMDNNAVAIKALELYKINAKLCDPH [A39V] it was -0.084 ± 0.1; in that of KHLIERYYHQLTEGCGNEACTNEFCASCPTFLRMDNNAYAIKALELYKINAKLCDPH [A39Y], -0.239 ± 0.18.
Consider KHLIVRYYHQLTEGCGNEACTNEFCASCPTFLRMDNNAAAIKALELYKINAKLCDPH [E5V], for which the abundance fitness is -0.211 ± 0.048.
The value for KHLIERYYHQLTEGCGNEACTNEFCASCITFLRMDNNAAAIKALELYKINAKLCDPH [P29I] was -0.122 ± 0.15; that for KHLIERYYHQLTEGCGNEACTNEFCASCSTFLRMDNNAAAIKALELYKINAKLCDPH [P29S] was -0.09 ± 0.1; that for KHLIERYYHQLTEGCGNEACTNEFCASCWTFLRMDNNAAAIKALELYKINAKLCDPH [P29W] was -0.557 ± 0.2.
Turning to KHLIERYYHQLTEGCGNEACTNEFCASCQTFLRMDNNAAAIKALELYKINAKLCDPH [P29Q], the abundance fitness is -0.103 ± 0.17.
Turning to KHLIERYYHQLTEGCGNEACTNEFCASCPTQLRMDNNAAAIKALELYKINAKLCDPH [F31Q], the abundance fitness was -0.098 ± 0.12.
Take KHLIERYYHQLTEGCGNEACTNEFCASCPTTLRMDNNAAAIKALELYKINAKLCDPH [F31T]: the abundance fitness is -0.023 ± 0.11.
For KHLIERYYHQLTEGCGNEACTNEFCASCPTPLRMDNNAAAIKALELYKINAKLCDPH [F31P], the abundance fitness was -0.185 ± 0.11.
In the case of KHLIERYYHQLTEGCGNEACTNEFCASCPTFLRMDNNAAAIKASELYKINAKLCDPH [L44S], the abundance fitness is 0.051 ± 0.068.
In the case of KHLIERYYHQLTEGCGNEACTNEFCASCPTFLRMDNNAAAIKAPELYKINAKLCDPH [L44P] it was 0.059 ± 0.095; in that of KHLIERYYHQLTEGCGNEACTNEFCASCPTFLRMDNNAAAIKALELYKINAKGCDPH [L53G], -0.199 ± 0.063.
In the case of KHLIERYYHQLTEGCGNEACTNEFCASCPTFLRMDNNAAAIKALELYKINAKFCDPH [L53F] it was -0.048 ± 0.14.
For the variant KHLIERYYHQLTEGCGNEACTNEFCASCPTFLRMDNNAAAIKALELYKINAKWCDPH [L53W], the abundance fitness was -0.164 ± 0.076.
KHLIERYYHQLTEGCGNEACTNEFCASCPTFLRMDNNAAAIKALELYKINAKQCDPH [L53Q]: the abundance fitness is 0.04 ± 0.11.
In the case of KHLIERYYHQLTEGCENEACTNEFCASCPTFLRMDNNAAAIKALELYKINAKLCDPH [G16E] it was -0.049 ± 0.06.
Turning to KHLIERYYHQLTEGCPNEACTNEFCASCPTFLRMDNNAAAIKALELYKINAKLCDPH [G16P], the abundance fitness was -0.132 ± 0.071.
In the case of KHLCERYYHQLTEGCGNEACTNEFCASCPTFLRMDNNAAAIKALELYKINAKLCDPH [I4C] it was -0.113 ± 0.084; in that of KHLIERYYHQLTEGCGNEACTNMFCASCPTFLRMDNNAAAIKALELYKINAKLCDPH [E23M], -0.021 ± 0.079; in that of KHLIERYYHQLTEGCGNEACTNCFCASCPTFLRMDNNAAAIKALELYKINAKLCDPH [E23C], -0.082 ± 0.093.
On to KHLIERYYHQLTEGCGNEACTNEFCASCPTFLVMDNNAAAIKALELYKINAKLCDPH [R33V], for which the abundance fitness was -0.013 ± 0.076.
As for KHLIERYYHQLTEGCGNEACTNEFCASCPTFLWMDNNAAAIKALELYKINAKLCDPH [R33W], the abundance fitness is -0.294 ± 0.1.
The value for KHLIENYYHQLTEGCGNEACTNEFCASCPTFLRMDNNAAAIKALELYKINAKLCDPH [R6N] was -0.006 ± 0.051.
The value for KHLIERYYHQLTEGCGNEACTNEFCAWCPTFLRMDNNAAAIKALELYKINAKLCDPH [S27W] was -0.772 ± 0.069.
KHLIERYYHQLTEGCGNEACTNEFCAHCPTFLRMDNNAAAIKALELYKINAKLCDPH [S27H]: the abundance fitness was -0.196 ± 0.093.
Consider KHLIERYYHQLTEGCGNEACTNEFCAKCPTFLRMDNNAAAIKALELYKINAKLCDPH [S27K], for which the abundance fitness was -0.06 ± 0.081.
Take KHLIERYYHQLTEGWGNEACTNEFCASCPTFLRMDNNAAAIKALELYKINAKLCDPH [C15W]: the abundance fitness is -0.969 ± 0.099.
In the case of KHLIERYYHQLTEGRGNEACTNEFCASCPTFLRMDNNAAAIKALELYKINAKLCDPH [C15R], the abundance fitness is -0.912 ± 0.072.

The values above are taken from the Human Domainome abundance scans (Beltran et al. 2025).
